Laboratory results as given in publication PMC9449670 (2022).
Where no end group is shown, it is not given here.

Experiments:
[1] = target: T1, Pept 02 (GsMTx4 loop2-derived peptide) (Grammostola spatulata, not fully specified (bridges); printed as Trp-Lys-Cys-Asn-Pro-Asn-Asp-Asp-Lys-Cys; cysteine pairing not given here); assay: inside-out patch clamp dose-response (Hill fit, -50 mV)
T1 chain: WKCNPNDDKC

GsMTx4 = target: T2, GsMTx4 (Grammostola spatulata, UniProt Q7YT39, not fully specified); assay: as above
T2 chain: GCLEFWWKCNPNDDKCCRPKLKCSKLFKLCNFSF

B1: SAKcaC (stretch-activated BK channel) (protein)
chain: not shown
- Kd [1]: 23.8 nM
- Kd (GsMTx4): 47.2 nM
